Assay results published in patent publication CN115819582A (HEFEI TIANGANG IMMUNOLOGY PHARMACEUTICAL CO LTD, dated 2023).

B1: 鼠单抗mAb003 (antibody, mouse IgG1, kappa, V domains shown)
VH: EVQLQQSGPELVKPGASVRITCKASGYTFTDYNIHWVKQSHGKSLEWIGYIYPYNGGSGYNQKFKSQATLTVDTSSTTAYMEIRSLTSEDSAVYYCAREEVRRDEALDFWGQGTSVTVSS
VL: DIQMTQSPASLSVSVGETVNITCRVSENIYSNLAWYQQKQGKSPQLLVYGASNLPDGVPSRFSGSGSGTQYSLKINTLQSEDFGTYYCQHFWGTPYTFGGGTKLEIKR
notes: Mouse monoclonal antibody from a hybridoma; also called PVRIG抗体
B2: 鼠单抗mAb001 (antibody, mouse IgG1, kappa, V domains shown)
VH: EVQLQQSGPDLVKTGASVKISCKAVGYSFTGYNVHWVKQSHDKSLEWIGYIHFYTGATDYNQKFKDKATFTVDASSNTAYMQFNSLTSEDSAVYYCAIMRWAVDYWGQGTSVTVSS
VL: QIVLTQSPTIMSASPGETVTMTCSVSSSVNYIYWYQQKSGASPKRWIYDTSKLASGVPSRFSGSGSGASYSLTISNMEAEDAATYYCQQWSSNPYTFGGGTKLEIKR
notes: as for B1
B3: 鼠单抗mAb002 (antibody, mouse IgG1, kappa, V domains shown)
VH: EVQLQQSGPELVKPGASMKISCKASGYSFTGYTMNWVKQSPGKNLEWIGLITPYNNDTSYNQKFKGKATLTVDKSSSTAYMELLSLTSEDSAVYYCARWVYGNYVGWFAYWGQGTLVTVSA
VL: DIVMTQSHKFMSTSVGDRVNITCKASQDVSTSVTWYQQKPGQSPKLLIYSTSYRYTGVPDRFTGSGSGTDFTFTISSVQAEDLAVYYCQQHYSTPWTFGGGTKLEIKR
notes: as for B1
B4: 鼠单抗mAb004 (antibody, mouse IgG1, kappa)
heavy: QVQLQQPGAELVKPGTSVKLSCKASGYNFTSYWINWVKLRPGQGLEWIGDIYPGNYSPNYNEKFLNKATLTTDTASSTAYMQLNNLASEDSAVYYCASGYFDYWGQGTTLIVSAAKTTPPSVYPLAPGSAAQTNSMVTLGCLVKGYFPEPVTVTWNSGSLSSGVHTFPAVLQSDLYTLSSSVTVPSSTWPSETVTCNVAHPASSTKVDKKIVPRDCGCKPCICTVPEVSSVFIFPPKPKDVLTITLTPKVTCVVVDISKDDPEVQFSWFVDDVEVHTAQTQPREEQFNSTFRSVSELPIMHQDWLNGKEFKCRVNSAAFPAPIEKTISKTKGRPKAPQVYTIPPPKEQMAKDKVSLTCMITDFFPEDITVEWQWNGQPAENYKNTQPIMDTDGSYFVYSKLNVQKSNWEAGNTFTCSVLHEGLHNHHTEKSLSHSPGK
light: DIVMTQSPSSLSVSAGEEVIMSCKSSQSLLNSGTQKNYLAWYQQKPGQPPKLLIYGTSTRESGVPDRFTGSGSGTDFTLTINNVQAEDLAIYYCQNDHSYPYTFGGGTKLEIKRADAAPTVSIFPPSSEQLTSGGASVVCFLNNFYPKDINVKWKIDGSERQNGVLNSWTDQDSKDSTYSMSSTLTLTKDEYERHNSYTCEATHKTSTSPIVKSFNRNEC
notes: as for B1

molecular target: T1, 重组人PVRIG-人IgG1 Fc融合蛋白 (human); experiment: ELISA, coated PVRIG-Fc 0.5 ug/ml, anti-mouse IgG-HRP
T1 construct: The Fc gene was added at the C-terminus of the gene for the PVRIG extracellular domain; no linker or signal peptide is stated; also called 人PVRIG重组蛋白
T1 sequence (chain, as listed by the source limits assumed): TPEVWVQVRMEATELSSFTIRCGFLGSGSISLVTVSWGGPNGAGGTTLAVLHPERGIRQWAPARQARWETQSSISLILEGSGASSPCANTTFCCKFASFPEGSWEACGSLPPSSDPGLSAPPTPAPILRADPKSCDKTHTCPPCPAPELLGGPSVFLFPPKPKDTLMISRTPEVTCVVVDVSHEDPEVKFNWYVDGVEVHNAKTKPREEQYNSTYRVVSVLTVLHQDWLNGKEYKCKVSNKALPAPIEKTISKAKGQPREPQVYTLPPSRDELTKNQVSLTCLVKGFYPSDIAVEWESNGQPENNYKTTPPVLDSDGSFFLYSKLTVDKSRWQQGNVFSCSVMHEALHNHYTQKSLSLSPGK

Binding result, binds:
B1
B2
B3
B4
